From patent publication US20050106100A1, “Compounds containing matrix metalloproteinase substrates and methods of their use” (priority 2003, published 2005) come the findings set out here.

Format in all cases: biochemical
Substrate in series [1]: CC(=O)N1CCC[C@H]1C(=O)N[C@@H](CC(C)C)C(=O)NCC(=O)N[C@@H](CCc1ccccc1)C(=O)N[C@@H](Cc1ccc(O)cc1)C(=O)N[C@@H](CC(C)C)C(=O)NNC(=O)c1ccc(N/N=C/c2ccccc2S(=O)(=O)ON)nc1
The series is described as follows: Kinetic measurements of substrate hydrolysis by active MMP-2 (radio HPLC assay). As to conditions: other: active MMP-2 final concentration 10 nM, 37° C., 60 minutes, radiolabeled test substrate, pH 7.5.
Procedure: (§2) Purified MMP-2 (10 μg) or MMP-9 (10 μg) were reconstituted in 100 μL of TCN buffer. […] Pro-MMP-2 was activated by incubation with 2 nM APMA for 2 hours at 37° C. At the end of incubation 100 μl of 100% glycerol was added to active MMP-2 and active MMP-9 (final concentration 50% glycerol). Active MMP-2 and active MMP-9 were aliquoted and stored at −20° C.
(§3) The level of active protease was always quantified by active site titration studies prior to kinetic studies. The active site of MMP-9 and MMP-2 was titrated using the GM6001 dissolved in 100% DMSO at a stock concentration of 2.5 mM. Dilutions (1:2) of GM6001 were prepared in TCN buffer to give a final concentration of 5 nM to 0.04 nM GM6001 in the active site titration assay. Activated MMP-2 or activated MMP-9 (2 nM) was preincubated with increasing concentrations of GM60001 at 37° C. for 15 minutes in 96 well black microtiter plates. […] Plates were read on fluorescence spectrophotometer at excitation wavelength of 320 nm and emission wavelength of 395 nm. The concentration of the active enzyme was determined using the Morrison equation and Kaleidagraph software (Reading, Pa.).
(§4) The kinetic parameters of substrate hydrolysis were determined using a radio HPLC assay. The turnover of different substrates by active MMP-2 and active MMP-9 was determined using this assay. […] The radiolabel was detected by a IN/US beta ram detector. […]

Substrate in series [2]: CC(=O)N1CCC[C@H]1C(=O)N[C@@H](CCCN)C(=O)NCC(=O)N[C@@H](CCc1ccccc1)C(=O)N[C@@H](CC(C)C)C(=O)NNC(=O)c1ccc(N/N=C/c2ccccc2S(=O)(=O)O)nc1
The series is described as above. As to conditions: other: active MMP-2 final concentration 10 nM, 37° C., 60 minutes, radiolabeled test substrate, pH 7.5.
Procedure: as §2, §3, §4

Substrate in series [3]: CC(=O)N1CCC[C@H]1C(=O)N[C@@H](CC(C)C)C(=O)NCC(=O)N[C@@H](CCc1ccccc1)C(=O)N[C@@H](Cc1ccc(O)cc1)C(=O)N[C@@H](CC(C)C)C(=O)NNC(=O)c1ccc(N/N=C/c2ccccc2S(=O)(=O)ON)nc1
The series is described as follows: Substrate hydrolysis assay with mouse MMP9. As to conditions: other: mouse MMP9; pH 7.5. Here is the method: (§1) The kinetic parameters of substrate hydrolysis were determined using a radio HPLC assay. The turnover of different substrates by active MMP-2 and active MMP-9 was determined using this assay. A stock solution of different test substrates (10 mM) was prepared in 100% DMSO. Stock solutions of the test substrates were diluted 1000 fold (10 nM) in buffer (50 mM Hepes/pH 7.5, 10 mM CaCl2, 0.1% Brij) to give working stock solution. Working stock solution of the test substrate (15 μl) was added to buffer (120 μL) in a test tube and warmed at 37° C. for 2 minutes. To this solution 15 μL of working stock of active MMP-2 (final concentration 10 nM) or active MMP-9 was added (final concentration 2 nM). Finally, 4 μCi of radiolabeled test substrate was added and the solution was mixed and immediately 67.5 µL of the mix was transferred to HPLC vials containing 7.5 μl of 0.5M EDTA for t=0 minute measurement. The rest of the mix in the test tube was incubated at 37° C. for 60 minutes. At the 60 minute time point 67.5 μl of the mix was transferred to the HPLC vial containing 7.5 μL of 0.5 M EDTA for t=60 minute measurement. […] Mobile phase A (MPA) was 25 mM ammonium acetate and mobile phase B (MPB) was 100% acetonitrile. […] The radiolabel was detected by a IN/US beta ram detector. […]

Substrate in series [4]: CC(=O)N1CCC[C@H]1C(=O)N[C@@H](CCCN)C(=O)NCC(=O)N[C@@H](CCc1ccccc1)C(=O)N[C@@H](CC(C)C)C(=O)NNC(=O)c1ccc(N/N=C/c2ccccc2S(=O)(=O)O)nc1
The series is described as follows: Substrate hydrolysis assay with mouse MMP9. As to conditions: other: mouse MMP9; pH 7.5. As for the experimental part:
as §1

The kcat/Km is the turnover number divided by the Michaelis constant.

B1: MMP-2 (Homo sapiens) (protein)
chain: YNFFPRKPKWDKNQITYRIIGYTPDLDPETVDDAFARAFQVWSDVTPLRFSRIHDGEADIMINFGRWEHGDGYPFDGKDGLLAHAFAPGTGVGGDSHFDDDELWTLGEGQVVRVKYGNADGEYCKFPFLFNGKEYNSCTDTGRSDGFLWCSTTYNFEKDGKYGFCPHEALFTMGGNAEGQPCKFPFRFQGTSYDSCTTEGRTDGYRWCGTTEDYDRDKKYGFCPETAMSTVGGNSEGAPCVFPFTFLGNKYESCTSAGRSDGKMWCATTANYDDDRKWGFCPDQGYSLFLVAAHEFGHAMGLEHSQDPGALMAPIYTYTKNFRLSQDDIKGIQELYGASPDIDLGTGPTPTLGPVTPEICKQDIVFDGIAQIRGEIFFFKDRFIWRTVTPRDKPMGPLLVATFWPELPEKIDAVYEAPQEEKAVFFAGNEYWIYSASTLERGYPKPLTSLGLPPDVQRVDAAFNWSKNKKTYIFAGDKFWRYNEVKKKMDPGFPKLIADAWNAIPDNLDAVVDLQGGGHSYFFKGAYYLKLENQSLKSVKFGSIKSDWLGC
For B1, the values for the kcat/Km in series [1] and in series [2] were 63200 M⁻¹ s⁻¹ and 63700 M⁻¹ s⁻¹, respectively.

B2: mouse MMP9 (Mus musculus) (protein)
chain: FQTFKGLKWDHHNITYWIQNYSEDLPRDMIDDAFARAFAVWGEVAPLTFTRVYGPEADIVIQFGVAEHGDGYPFDGKDGLLAHAFPPGAGVQGDAHFDDDELWSLGKGVVIPTYYGNSNGAPCHFPFTFEGRSYSACTTDGRNDGTPWCSTTADYDKDGKFGFCPSERLYTEHGNGEGKPCVFPFIFEGRSYSACTTKGRSDGYRWCATTANYDQDKLYGFCPTRVDATVVGGNSAGELCVFPFVFLGKQYSSCTSDGRRDGRLWCATTSNFDTDKKWGFCPDQGYSLFLVAAHEFGHALGLDHSSVPEALMYPLYSYLEGFPLNKDDIDGIQYLYGRGSKPDPRPPATTTTEPQPTAPPTMCPTIPPTAYPTVGPTVGPTGAPSPGPTSSPSPGPTGAPSPGPTAPPTAGSSEASTESLSPADNPCNVDVFDAIAEIQGALHFFKDGWYWKFLNHRGSPLQGPFLTARTWPALPATLDSAFEDPQTKRVFFFSGRQMWVYTGKTVLGPRSLDKLGLGPEVTHVSGLLPRRLGKALLFSKGRVWRFDLKSQKVDPQSVIRVDKEFSGVPWNSHDIFQYQDKAYFCHGKFFWRVSFQNEVNKVDHEVNQVDDVGYVTYDLLQCP
notes: The turnover of different substrates by active MMP-2 and active MMP-9 was determined using this assay
With B2, the kcat/Km was > 100000 M⁻¹ s⁻¹ in series [3] and 897 M⁻¹ s⁻¹ in series [4].
